Results as given in patent US8198236B2, “Methods and compositions for the treatment of cancer” (Washington University, priority 2007, dated 2012).

Target: LRP5 (Homo sapiens, UniProt O75197)
Assay: 125I-Mesd binding to HEK293 cells transiently transfected with LRP5
Set-up: Plasmid pcDNA3.1C-Myc-hLRP5 containing the full-length human LRP5 cDNA; expressed in transfected cells; host or cells: HEK293 cells, transient transfection
Conditions: 125I-Mesd 5 nM, 4 hours at 4° C.
Procedure: Cells (2×10^5) were seeded into 12-well dishes 1 day prior to assay. Ligand-binding buffer (minimal Eagle's medium containing 0.6% BSA with a different concentration of radioligand, 0.6 ml/well) was added to cell monolayers, in the absence or the presence of 500 nM unlabeled RAP or 500 nM unlabeled Mesd, followed with incubation for 0-4 hours at 4° C. Thereafter, overlying buffer containing unbound ligand was removed, and cell monolayers were washed and lysed in low-SDS lysis buffer (62.5 mM Tris-HCl pH 6.8, 0.2% SDS, 10% v/glycerol) and counted.
To determine whether Mesd binds to other members of the LDLR family, ^125I-Mesd binding analysis was performed with four groups of cells expressing different members of the LDLR family (FIG. 2). In the first experiment, HEK293 cells were transiently transfected with cDNAs for the LDLR, LRP5, LRP6 or empty pcDNA3 vector. […]

LRP5, sequence (O75197 32-1615): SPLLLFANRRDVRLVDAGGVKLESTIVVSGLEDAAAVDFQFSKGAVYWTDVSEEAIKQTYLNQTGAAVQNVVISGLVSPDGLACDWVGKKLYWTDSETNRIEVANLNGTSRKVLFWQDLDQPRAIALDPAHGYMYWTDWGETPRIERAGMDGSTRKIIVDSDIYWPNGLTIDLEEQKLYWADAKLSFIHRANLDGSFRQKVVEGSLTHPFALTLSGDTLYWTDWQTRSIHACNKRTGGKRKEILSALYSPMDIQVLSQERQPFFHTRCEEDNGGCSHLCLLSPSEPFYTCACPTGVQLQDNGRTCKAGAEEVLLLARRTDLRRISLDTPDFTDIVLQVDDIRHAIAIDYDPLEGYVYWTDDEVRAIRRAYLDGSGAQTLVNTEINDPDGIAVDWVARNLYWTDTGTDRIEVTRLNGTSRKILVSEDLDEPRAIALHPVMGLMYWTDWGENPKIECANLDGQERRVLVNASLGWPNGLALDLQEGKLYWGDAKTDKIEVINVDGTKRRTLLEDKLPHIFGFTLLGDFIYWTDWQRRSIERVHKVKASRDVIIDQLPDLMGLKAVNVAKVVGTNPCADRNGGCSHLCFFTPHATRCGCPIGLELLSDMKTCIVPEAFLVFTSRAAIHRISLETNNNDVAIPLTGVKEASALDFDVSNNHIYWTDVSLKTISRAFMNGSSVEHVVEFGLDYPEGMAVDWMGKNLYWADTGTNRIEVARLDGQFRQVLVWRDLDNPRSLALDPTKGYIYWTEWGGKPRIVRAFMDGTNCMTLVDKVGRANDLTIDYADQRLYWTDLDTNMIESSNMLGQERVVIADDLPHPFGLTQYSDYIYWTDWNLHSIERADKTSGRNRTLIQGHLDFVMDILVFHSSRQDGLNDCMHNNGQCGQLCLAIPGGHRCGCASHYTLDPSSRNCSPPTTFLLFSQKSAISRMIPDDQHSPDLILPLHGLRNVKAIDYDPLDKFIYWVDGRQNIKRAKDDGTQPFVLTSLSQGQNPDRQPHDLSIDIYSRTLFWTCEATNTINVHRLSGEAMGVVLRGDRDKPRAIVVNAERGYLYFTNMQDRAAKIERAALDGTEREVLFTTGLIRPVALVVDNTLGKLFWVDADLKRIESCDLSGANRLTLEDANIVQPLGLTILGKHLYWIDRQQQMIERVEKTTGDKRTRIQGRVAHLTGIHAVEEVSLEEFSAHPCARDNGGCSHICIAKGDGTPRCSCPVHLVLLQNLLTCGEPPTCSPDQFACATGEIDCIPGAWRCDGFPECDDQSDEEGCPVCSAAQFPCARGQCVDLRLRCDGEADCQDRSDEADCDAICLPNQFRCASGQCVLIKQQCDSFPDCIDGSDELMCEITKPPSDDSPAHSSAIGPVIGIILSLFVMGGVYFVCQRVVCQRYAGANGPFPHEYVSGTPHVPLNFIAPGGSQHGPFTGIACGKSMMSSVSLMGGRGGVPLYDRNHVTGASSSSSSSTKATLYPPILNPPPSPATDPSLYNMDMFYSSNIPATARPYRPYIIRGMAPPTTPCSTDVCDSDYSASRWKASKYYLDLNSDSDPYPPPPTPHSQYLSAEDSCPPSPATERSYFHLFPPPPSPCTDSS

B1: Mesd: Recombinant full-length mouse Mesd expressed in E. coli, N-terminal polyhistidine tail, lacking the signal peptide (protein)
chain: ADTPGEATPPPRKKKDIRDYNDADMARLLEQWEKDDDIEEGDLPEHKRPSAPIDFSKLDPGKPESILKMTKKGKTLMMFVTVSGNPTEKETEEITSLWQGSLFNANYDVQRFIVGSDRAIFMLRDGSYAWEIKDFLVSQDRCAEVTLEGQMYPGKGGGSKEKNKTKPEKAKKKEGDRKPRASKEDNRAGSRREDL
modifications: left off: small tags and cut ends
notes: Recombinant full-length mouse Mesd expressed in E. coli, N-terminal polyhistidine tail, lacking the signal peptide
- Mesd binding to LRP5: specifically binds to Mesd, albeit at lower levels compared to LRP6
